In patent US20220143024A1, “METHODS OF USING IMIPRIDONES” (Board of Regents, The University of Texas System, priority 2019, published 2022):

Legend:
Assay in all cases: BioID-MS +ONC201
[1] = target: SFXN4 (human) (UniProt Q6P4A7)
[2] = target: HSD17B8 (human) (UniProt Q92506)
[3] = target: MTRF1L (human) (UniProt Q9UGC7)
[4] = target: NDUFS4 (human) (UniProt O43181)
[5] = target: BCKDHA (human) (UniProt P12694)
[6] = target: RPS15A (human) (UniProt P62244)
[7] = target: SUCLA2 (human) (UniProt Q9P2R7)
[8] = target: GLRX5 (human) (UniProt Q86SX6)
GLRX5 (human), sequence (Q86SX6 32-157 limits assumed): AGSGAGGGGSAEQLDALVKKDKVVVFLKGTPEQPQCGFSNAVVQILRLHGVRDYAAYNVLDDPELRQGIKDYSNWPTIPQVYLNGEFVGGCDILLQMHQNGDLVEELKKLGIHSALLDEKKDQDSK

[9] = target: NADK2 (human) (UniProt Q4G0N4)
[10] = target: NDUFS8 (human) (UniProt O00217)
[11] = target: MARS2 (human) (UniProt Q96GW9)
[12] = target: GTPBP10 (human) (UniProt A4D1E9)
[13] = target: GATC (human) (UniProt O43716)
GATC (human), sequence (O43716 58-136 limits assumed): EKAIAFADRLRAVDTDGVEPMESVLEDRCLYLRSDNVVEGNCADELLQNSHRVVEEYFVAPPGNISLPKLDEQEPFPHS

[14] = target: MTPAP (human) (UniProt Q9NVV4)
MTPAP (human), sequence (Q9NVV4 38-582 limits assumed): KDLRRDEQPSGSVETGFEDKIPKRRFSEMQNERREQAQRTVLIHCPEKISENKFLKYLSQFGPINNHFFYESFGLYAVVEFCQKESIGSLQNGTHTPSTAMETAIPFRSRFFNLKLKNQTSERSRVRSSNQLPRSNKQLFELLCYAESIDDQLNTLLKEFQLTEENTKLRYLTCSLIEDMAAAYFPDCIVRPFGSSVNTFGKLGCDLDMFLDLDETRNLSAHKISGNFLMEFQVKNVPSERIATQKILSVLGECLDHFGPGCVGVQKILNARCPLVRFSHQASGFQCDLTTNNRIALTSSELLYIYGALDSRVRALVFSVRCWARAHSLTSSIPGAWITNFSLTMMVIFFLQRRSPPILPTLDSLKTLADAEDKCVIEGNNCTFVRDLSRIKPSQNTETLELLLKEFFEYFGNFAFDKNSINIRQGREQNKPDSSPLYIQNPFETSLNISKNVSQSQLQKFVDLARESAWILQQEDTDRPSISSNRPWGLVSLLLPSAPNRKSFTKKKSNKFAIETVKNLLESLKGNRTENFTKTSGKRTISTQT

[15] = target: ACSS1 (human) (UniProt Q9NUB1)
[16] = target: C20orf7 (human) (UniProt Q5TEU4)
[17] = target: CHCHD3 (human) (UniProt Q9NX63)
[18] = target: IDH3A (human) (UniProt P50213)
IDH3A (human), sequence (P50213 28-366 limits assumed): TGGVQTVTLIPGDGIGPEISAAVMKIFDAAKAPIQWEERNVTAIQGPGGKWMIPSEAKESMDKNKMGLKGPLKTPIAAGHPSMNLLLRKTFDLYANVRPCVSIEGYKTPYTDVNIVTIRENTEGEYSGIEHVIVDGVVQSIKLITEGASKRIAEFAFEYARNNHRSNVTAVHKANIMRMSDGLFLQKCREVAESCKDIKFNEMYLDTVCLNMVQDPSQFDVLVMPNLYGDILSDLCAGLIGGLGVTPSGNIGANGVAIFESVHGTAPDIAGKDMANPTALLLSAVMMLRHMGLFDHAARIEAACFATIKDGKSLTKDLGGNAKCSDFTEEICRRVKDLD

[19] = target: PTPMT1 (human) (UniProt Q8WUK0)
[20] = target: SPRYD4 (human) (UniProt Q8WW59)
[21] = target: PPIF (human) (UniProt P30405)
[22] = target: PIN1 (human) (UniProt Q13526)
[23] = target: TARS2 (human) (UniProt Q9BW92)
[24] = target: QRSL1 (human) (UniProt Q9H0R6)
QRSL1 (human), sequence (Q9H0R6 whole entry): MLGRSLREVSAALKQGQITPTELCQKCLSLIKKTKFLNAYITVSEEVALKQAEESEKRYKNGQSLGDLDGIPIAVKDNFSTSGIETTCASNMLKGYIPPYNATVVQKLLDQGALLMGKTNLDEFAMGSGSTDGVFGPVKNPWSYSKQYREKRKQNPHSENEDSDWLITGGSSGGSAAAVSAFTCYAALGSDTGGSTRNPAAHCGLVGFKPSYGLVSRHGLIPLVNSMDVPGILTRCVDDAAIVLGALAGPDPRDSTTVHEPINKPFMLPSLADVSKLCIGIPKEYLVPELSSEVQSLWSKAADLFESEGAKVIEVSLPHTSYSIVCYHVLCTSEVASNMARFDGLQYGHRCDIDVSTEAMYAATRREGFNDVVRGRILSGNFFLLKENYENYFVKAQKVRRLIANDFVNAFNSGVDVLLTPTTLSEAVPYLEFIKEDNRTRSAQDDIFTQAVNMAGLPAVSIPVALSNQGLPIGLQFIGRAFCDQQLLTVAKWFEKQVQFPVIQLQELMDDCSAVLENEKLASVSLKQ

[25] = target: NDUFV3 (human) (UniProt P56181)
NDUFV3 (human), sequence (P56181 35-108 limits assumed): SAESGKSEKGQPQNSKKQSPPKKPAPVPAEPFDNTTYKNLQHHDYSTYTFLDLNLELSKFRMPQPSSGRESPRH

[26] = target: NDUFAF1 (human) (UniProt Q9Y375)
[27] = target: COX5A (human) (UniProt P20674)
COX5A (human), sequence (P20674 42-150 limits assumed): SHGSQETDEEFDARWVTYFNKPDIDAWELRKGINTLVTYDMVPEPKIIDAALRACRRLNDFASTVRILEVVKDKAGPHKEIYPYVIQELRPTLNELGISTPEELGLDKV

[28] = target: NIPSNAP1 (human) (UniProt Q9BPW8)
NIPSNAP1 (human), sequence (Q9BPW8 36-284 limits assumed): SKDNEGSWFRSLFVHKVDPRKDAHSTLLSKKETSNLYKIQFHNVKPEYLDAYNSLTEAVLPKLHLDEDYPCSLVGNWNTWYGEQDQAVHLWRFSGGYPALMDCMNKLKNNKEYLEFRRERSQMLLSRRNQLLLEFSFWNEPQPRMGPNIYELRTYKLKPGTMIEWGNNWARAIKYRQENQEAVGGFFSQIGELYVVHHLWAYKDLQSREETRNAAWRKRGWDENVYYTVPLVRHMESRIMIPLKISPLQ

[29] = target: MPST (human) (UniProt P25325)
MPST (human), sequence (P25325 2-297 limits assumed): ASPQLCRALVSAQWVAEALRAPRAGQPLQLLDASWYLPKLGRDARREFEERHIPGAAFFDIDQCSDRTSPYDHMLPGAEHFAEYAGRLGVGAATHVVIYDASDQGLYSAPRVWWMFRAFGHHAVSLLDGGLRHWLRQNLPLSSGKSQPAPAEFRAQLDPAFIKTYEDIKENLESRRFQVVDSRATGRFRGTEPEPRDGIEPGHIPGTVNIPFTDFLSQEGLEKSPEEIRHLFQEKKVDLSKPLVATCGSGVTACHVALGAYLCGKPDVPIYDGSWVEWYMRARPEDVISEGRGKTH

[30] = target: MRPL40 (human) (UniProt Q9NQ50)
[31] = target: C12orf10 (human) (UniProt Q9HB07)
[32] = target: LYRM4 (human) (UniProt Q9HD34)
[33] = target: SUCLG2 (human) (UniProt Q96I99)
[34] = target: ACAT1 (human) (UniProt P24752)
ACAT1 (human), sequence (P24752 34-427 limits assumed): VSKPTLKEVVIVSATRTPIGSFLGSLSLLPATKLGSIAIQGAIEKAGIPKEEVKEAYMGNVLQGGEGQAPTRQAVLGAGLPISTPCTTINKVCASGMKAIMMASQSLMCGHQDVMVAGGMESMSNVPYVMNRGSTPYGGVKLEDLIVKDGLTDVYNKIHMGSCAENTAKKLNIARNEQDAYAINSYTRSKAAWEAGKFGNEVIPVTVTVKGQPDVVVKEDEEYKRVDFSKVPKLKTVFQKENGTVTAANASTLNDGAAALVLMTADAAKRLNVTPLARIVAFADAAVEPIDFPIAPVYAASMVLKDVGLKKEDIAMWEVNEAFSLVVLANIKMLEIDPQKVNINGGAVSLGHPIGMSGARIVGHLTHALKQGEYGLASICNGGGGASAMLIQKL

[35] = target: HARS2 (human) (UniProt P49590)
[36] = target: NUDT19 (human) (UniProt A8MXV4)
NUDT19 (human), sequence (A8MXV4 whole entry): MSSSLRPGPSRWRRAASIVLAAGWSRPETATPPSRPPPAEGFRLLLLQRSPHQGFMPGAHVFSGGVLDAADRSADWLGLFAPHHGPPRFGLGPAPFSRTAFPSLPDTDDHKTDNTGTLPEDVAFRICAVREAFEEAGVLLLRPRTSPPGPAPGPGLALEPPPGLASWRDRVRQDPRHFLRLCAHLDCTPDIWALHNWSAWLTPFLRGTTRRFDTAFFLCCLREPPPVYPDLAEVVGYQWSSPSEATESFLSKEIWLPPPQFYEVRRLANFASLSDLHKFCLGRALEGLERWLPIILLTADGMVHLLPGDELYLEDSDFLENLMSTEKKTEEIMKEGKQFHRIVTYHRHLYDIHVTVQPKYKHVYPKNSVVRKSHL

[37] = target: DHRS4 (human) (UniProt Q9BTZ2)
DHRS4 (human), sequence (Q9BTZ2 whole entry): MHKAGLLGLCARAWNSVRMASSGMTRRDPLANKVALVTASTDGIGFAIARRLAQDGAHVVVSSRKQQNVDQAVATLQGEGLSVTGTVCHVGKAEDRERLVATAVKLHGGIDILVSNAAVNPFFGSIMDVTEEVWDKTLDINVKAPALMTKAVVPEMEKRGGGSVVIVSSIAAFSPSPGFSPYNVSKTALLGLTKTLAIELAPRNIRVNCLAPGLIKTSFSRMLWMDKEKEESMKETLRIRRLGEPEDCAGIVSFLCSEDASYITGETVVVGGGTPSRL

[38] = target: NDUFS2 (human) (UniProt O75306)
[39] = target: TAC01 (human) (UniProt Q9BSH4)
[40] = target: COX5B (human) (UniProt P10606)
COX5B (human), sequence (P10606 32-129 limits assumed): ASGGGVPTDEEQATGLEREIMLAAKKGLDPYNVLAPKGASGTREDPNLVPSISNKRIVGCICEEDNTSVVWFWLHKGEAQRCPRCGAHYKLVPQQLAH

[41] = target: CRAT (human) (UniProt P43155)
[42] = target: CARS2 (human) (UniProt Q9HA77)
[43] = target: MRPS28 (human) (UniProt Q9Y2Q9)
[44] = target: POLG2 (human) (UniProt Q9UHN1)
[45] = target: OXA1L (human) (UniProt Q15070)
[46] = target: DCAKD (human) (UniProt Q8WVC6)
[47] = target: MICU2 (human) (UniProt Q8IYU8)
[48] = target: UQCRB (human) (UniProt P14927)
[49] = target: MTRF1 (human) (UniProt O75570)
MTRF1 (human), sequence (O75570 62-445 limits assumed): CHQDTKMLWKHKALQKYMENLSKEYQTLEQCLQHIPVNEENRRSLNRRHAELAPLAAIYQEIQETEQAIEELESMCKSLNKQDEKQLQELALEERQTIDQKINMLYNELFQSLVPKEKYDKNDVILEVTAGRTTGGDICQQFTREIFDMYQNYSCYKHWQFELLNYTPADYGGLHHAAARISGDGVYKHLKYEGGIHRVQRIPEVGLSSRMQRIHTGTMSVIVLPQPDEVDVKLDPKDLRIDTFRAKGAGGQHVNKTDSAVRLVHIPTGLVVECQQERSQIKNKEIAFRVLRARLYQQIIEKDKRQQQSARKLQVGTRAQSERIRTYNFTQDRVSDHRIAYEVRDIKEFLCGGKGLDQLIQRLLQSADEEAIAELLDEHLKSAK

[50] = target: NADKD1 (human) (UniProt Q4G0N4)
[51] = target: IDE (human) (UniProt P14735)

MTRF1L (human), sequence (Q9UGC7 27-380 limits assumed): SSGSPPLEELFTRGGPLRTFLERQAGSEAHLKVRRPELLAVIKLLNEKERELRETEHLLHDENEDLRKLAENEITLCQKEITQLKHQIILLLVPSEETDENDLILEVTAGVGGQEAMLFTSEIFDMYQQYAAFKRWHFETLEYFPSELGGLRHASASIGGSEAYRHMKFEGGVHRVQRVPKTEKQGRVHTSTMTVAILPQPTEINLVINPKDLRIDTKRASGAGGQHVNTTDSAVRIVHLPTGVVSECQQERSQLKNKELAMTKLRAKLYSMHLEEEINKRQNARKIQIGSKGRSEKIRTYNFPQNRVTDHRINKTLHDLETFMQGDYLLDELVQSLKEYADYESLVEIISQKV
BCKDHA (human), sequence (P12694 46-445 limits assumed): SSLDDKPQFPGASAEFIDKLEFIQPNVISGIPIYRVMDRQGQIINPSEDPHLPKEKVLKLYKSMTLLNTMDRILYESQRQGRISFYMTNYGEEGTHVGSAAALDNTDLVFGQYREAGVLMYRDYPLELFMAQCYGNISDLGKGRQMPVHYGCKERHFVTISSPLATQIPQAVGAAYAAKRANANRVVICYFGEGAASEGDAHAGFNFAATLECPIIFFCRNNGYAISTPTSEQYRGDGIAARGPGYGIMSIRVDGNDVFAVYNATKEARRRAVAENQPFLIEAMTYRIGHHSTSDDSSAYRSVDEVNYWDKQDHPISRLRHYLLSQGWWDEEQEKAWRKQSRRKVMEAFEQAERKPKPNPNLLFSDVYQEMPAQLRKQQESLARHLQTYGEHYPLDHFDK
NDUFS4 (human), sequence (O43181 43-175 limits assumed): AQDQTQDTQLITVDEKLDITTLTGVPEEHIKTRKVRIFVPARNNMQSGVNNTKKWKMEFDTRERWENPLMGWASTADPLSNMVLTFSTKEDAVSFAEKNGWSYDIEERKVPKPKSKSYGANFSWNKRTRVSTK

FlagBirA-ClpP (WT) (from UniProt P06709 1-321; Q16740 57-277) (enzyme)
Log2 Fold change (vs control) [1]: -0.58 log2 | Log2 Fold change (vs control) [2]: -1.26 log2 | Log2 Fold change (vs control) [3]: -3.81 log2 | Log2 Fold change (vs control) [4]: -5.93 log2 | Log2 Fold change (vs control) [5]: -4.32 log2 | Log2 Fold change (vs control) [6]: -0.69 log2 | Log2 Fold change (vs control) [7]: -0.71 log2 | Log2 Fold change (vs control) [8]: -5.21 log2 | Log2 Fold change (vs control) [9]: -4.24 log2 | Log2 Fold change (vs control) [10]: -2.73 log2 | Log2 Fold change (vs control) [11]: -4.52 log2 | Log2 Fold change (vs control) [12]: -4.91 log2 | Log2 Fold change (vs control) [13]: -5.98 log2 | Log2 Fold change (vs control) [14]: -0.1 log2 | Log2 Fold change (vs control) [15]: -4.46 log2 | Log2 Fold change (vs control) [16]: -1.21 log2 | Log2 Fold change (vs control) [17]: -3.46 log2 | Log2 Fold change (vs control) [18]: -2 log2 | Log2 Fold change (vs control) [19]: -0.48 log2 | Log2 Fold change (vs control) [20]: -1.26 log2 | Log2 Fold change (vs control) [21]: -1.81 log2 | Log2 Fold change (vs control) [22]: -0.11 log2 | Log2 Fold change (vs control) [23]: -1.95 log2 | Log2 Fold change (vs control) [24]: -2.9 log2 | Log2 Fold change (vs control) [25]: -8.18 log2 | Log2 Fold change (vs control) [26]: -4.32 log2 | Log2 Fold change (vs control) [27]: -2.87 log2 | Log2 Fold change (vs control) [28]: -1.19 log2 | Log2 Fold change (vs control) [29]: -4.46 log2 | Log2 Fold change (vs control) [30]: -5.09 log2 | Log2 Fold change (vs control) [31]: -3.75 log2 | Log2 Fold change (vs control) [32]: 0 log2 | Log2 Fold change (vs control) [33]: -3.08 log2 | Log2 Fold change (vs control) [34]: -0.59 log2 | Log2 Fold change (vs control) [35]: -1.3 log2 | Log2 Fold change (vs control) [36]: -3.1 log2 | Log2 Fold change (vs control) [37]: -2.32 log2 | Log2 Fold change (vs control) [38]: -2.44 log2 | Log2 Fold change (vs control) [39]: -4.82 log2 | Log2 Fold change (vs control) [40]: -5 log2 | Log2 Fold change (vs control) [41]: -4 log2 | Log2 Fold change (vs control) [42]: -0.21 log2 | Log2 Fold change (vs control) [43]: -1.24 log2 | Log2 Fold change (vs control) [44]: -5.29 log2 | Log2 Fold change (vs control) [45]: -3 log2 | Log2 Fold change (vs control) [46]: -3.75 log2 | Log2 Fold change (vs control) [47]: -4.31 log2 | Log2 Fold change (vs control) [48]: -4.7 log2 | Log2 Fold change (vs control) [49]: -4.25 log2 | Log2 Fold change (vs control) [50]: -2.04 log2 | Log2 Fold change (vs control) [51]: -1.97 log2
